Consider 116 sequences from the supplement of paper PMC10724198.

± gives the standard deviation of the averaged measurements.
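Also: PSI is a weighted mean of sequencing reads over stability bins, variants kept only with over 10 reads, mCherry proximal and sfGFP distal, peptide attached via GGGS linker.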

The subject of the data set is Saccharomyces cerevisiae. The experiment in a line: protein stability index of tFT-peptide fusion (C-terminal peptide) (PSI (0-1 scale)); higher = more stable (slower turnover). The following applies: genetic background: wild type; temperature: 30 C.
Turning to KILNIKCLLANK, the protein stability index turned out to be 0.686 ± 0.017.

In turn, KILRKVIKQKGN had a protein stability index of 0.599 ± 0.041.

In turn, KIRIWWIEEKTI showed a protein stability index of 0.6067 ± 0.0023.

For the sequence KIRRECIGSSVY, the protein stability index was 0.687 ± 0.019.

With KISNRNKRTNRK, the protein stability index came out at 0.689 ± 0.077.

Sequence KITKRTKKTKEN displayed a protein stability index of 0.67086 ± 0.00056.

In turn, KKDQEKEKKGKE gave a protein stability index of 0.613 ± 0.015.

In the case of KKEAKRDKKSGR, the protein stability index is 0.727 ± 0.12.

As for KKEEKKRRKPQR, the protein stability index turned out to be 0.626 ± 0.039.

Take KKEKKKTKKWQE: the protein stability index is 0.694 ± 0.1.

The sequence KKEPEKEQQNKE yielded a protein stability index of 0.746 ± 0.097.

KKEQKRKKKEKQ returned a protein stability index of 0.758 ± 0.098.

KKERINNDLPGS came in with a protein stability index of 0.619 ± 0.026.

On to KKERSTKTNRNV, for which the protein stability index is 0.635 ± 0.0072.

On to KKGRKKEGKREK, for which the protein stability index was found to be 0.621 ± 0.06.

Take KKIKKRQSKENK: the protein stability index is 0.704 ± 0.015.

The sequence KKKENRQKREIQ displayed a protein stability index of 0.647 ± 0.029.

The sequence KKKETEKPRKQK displayed a protein stability index of 0.677 ± 0.054.

In turn, KKKETKKENKKK yielded a protein stability index of 0.723 ± 0.034.

As for KKKHKNNIQKKK, the protein stability index was found to be 0.6129 ± 0.0017.

For KKKIKKKSIKKT, the protein stability index was determined as 0.7074 ± 0.0044.

KKKKEEKWSSAR gave a protein stability index of 0.709 ± 0.061.

On to KKKKGNKKRREK, for which the protein stability index was 0.731 ± 0.0083.

Regarding KKKKHKNRKEKQ, the protein stability index is 0.692 ± 0.019.

KKKKIIKKKNIK displayed a protein stability index of 0.77 ± 0.069.

Turning to KKKKKEEKKNDK, the protein stability index turned out to be 0.721 ± 0.0073.

KKKKKIHIKNKK yielded a protein stability index of 0.707 ± 0.052.

As to KKKKKKKKQNQK, the protein stability index came to 0.7 ± 0.03.

In turn, KKKKKKKNKKQE came in with a protein stability index of 0.7456 ± 0.005.

The sequence KKKKKKKQKSKK came in with a protein stability index of 0.704 ± 0.057.

The sequence KKKKKKLKKKKI registered a protein stability index of 0.724 ± 0.056.

KKKKKKNKKEKK showed a protein stability index of 0.689 ± 0.12.

For the sequence KKKKKLKERRKI, the protein stability index was 0.668 ± 0.019.

In the case of KKKKKNKKKKKK, the protein stability index stood at 0.705 ± 0.046.

Consider KKKKKQEREKRN, for which the protein stability index is 0.623 ± 0.037.

Consider KKKKKQKEKKQK, for which the protein stability index was 0.72 ± 0.0083.

KKKKKRITKIKN showed a protein stability index of 0.7089 ± 0.0018.

In turn, KKKKKRTKKNNH returned a protein stability index of 0.767 ± 0.11.

On to KKKKNKKEEHVE, for which the protein stability index was determined as 0.715 ± 0.02.

As to KKKKNKKIKINE, the protein stability index came to 0.6874 ± 0.0033.

The sequence KKKKNKKNKRKN had a protein stability index of 0.613 ± 0.034.

In turn, KKKKNKNKRTRK registered a protein stability index of 0.662 ± 0.038.

In turn, KKKMINQKKKKD yielded a protein stability index of 0.649 ± 0.016.

In turn, KKKNKEKSKKKK had a protein stability index of 0.761 ± 0.05.

KKKNKKQNKAKK returned a protein stability index of 0.6396 ± 0.0023.

On to KKKRKKNRKTNK, for which the protein stability index was 0.67 ± 0.02.

The sequence KKKSNNNNQKPH had a protein stability index of 0.737 ± 0.016.

With KKMNVKNNKSKI, the protein stability index came out at 0.777 ± 0.17.

With KKNLITRQNPLS, the protein stability index amounted to 0.69004 ± 0.0003.

KKNQKEKATSRK showed a protein stability index of 0.769 ± 0.043.

KKNQNSKNRKEN yielded a protein stability index of 0.627 ± 0.036.

On to KKNRSRKRRNKK, for which the protein stability index was determined as 0.713 ± 0.032.

The sequence KKNYNTKLTQHP had a protein stability index of 0.683 ± 0.04.

As for KKRKKNIKQNTK, the protein stability index came out at 0.617 ± 0.043.

Sequence KKRQKKKKLIPQ came in with a protein stability index of 0.697 ± 0.024.

KKTDKSNKVKRI registered a protein stability index of 0.669 ± 0.013.

For the sequence KKWRKKTEHDKE, the protein stability index stood at 0.729 ± 0.028.

KKYEKNGKSSQK displayed a protein stability index of 0.685 ± 0.1.

Regarding KKYETNENNQKK, the protein stability index stood at 0.686 ± 0.027.

For KKYKKIGYRRIP, the protein stability index turned out to be 0.773 ± 0.12.

The sequence KKYNRNRIKKAR returned a protein stability index of 0.7 ± 0.08.

For the sequence KKYYCRKLNTKK, the protein stability index is 0.715 ± 0.017.

The sequence KLKACRIHEENR returned a protein stability index of 0.676 ± 0.019.

KLKNKRKKIRNR came in with a protein stability index of 0.71 ± 0.045.

KLNKKKKITIRI registered a protein stability index of 0.589 ± 0.025.

Sequence KLRSTLVSAQGV had a protein stability index of 0.652 ± 0.015.

KLTKAQPRMPLL gave a protein stability index of 0.702 ± 0.027.

As to KLVVFPYIRPSP, the protein stability index worked out at 0.709 ± 0.021.

As to KMCISLGTVLAV, the protein stability index was found to be 0.5504 ± 0.0055.

On to KMSRKIKIRERG, for which the protein stability index is 0.658 ± 0.016.

Sequence KNCYPTKKIAIK displayed a protein stability index of 0.638 ± 0.016.

In turn, KNDLHGLFLMSE registered a protein stability index of 0.648 ± 0.041.

In turn, KNIEKKKQKDTQ showed a protein stability index of 0.645 ± 0.058.

The sequence KNITVVKKAFDA yielded a protein stability index of 0.654 ± 0.024.

KNKFSTWDNEVN showed a protein stability index of 0.718 ± 0.041.

KNKKKKINKNKK came in with a protein stability index of 0.713 ± 0.067.

On to KNKKNKKKKTMK, for which the protein stability index amounted to 0.685 ± 0.041.

KNKKRDKYRKKT came in with a protein stability index of 0.607 ± 0.011.

For the sequence KNKRTQKKKRKK, the protein stability index worked out at 0.7299 ± 0.0016.

Turning to KNRKIIIITLPK, the protein stability index was determined as 0.63 ± 0.036.

With KPKKKRTKQRKR, the protein stability index came to 0.705 ± 0.08.

On to KPKRIRCDRSPH, for which the protein stability index was determined as 0.694 ± 0.019.

In turn, KPPCFSPTHHCP displayed a protein stability index of 0.713 ± 0.0018.

For KQANTKINSQKT, the protein stability index is 0.712 ± 0.036.

KQGFVRARSYHP showed a protein stability index of 0.699 ± 0.013.

For KQKKTKKTKKQN, the protein stability index was 0.647 ± 0.044.

KQKQNKKKNNKT showed a protein stability index of 0.843 ± 0.16.

As for KQLGMTCRYISK, the protein stability index turned out to be 0.692 ± 0.022.

On to KQMRIEYKTRNI, for which the protein stability index was determined as 0.604 ± 0.015.

KQRQTKTIRGPR displayed a protein stability index of 0.672 ± 0.059.

KQWCFLKWGVNV returned a protein stability index of 0.558 ± 0.058.

The sequence KREKENIAKSSV registered a protein stability index of 0.718 ± 0.078.

Turning to KREMCHRYTRRS, the protein stability index was 0.67 ± 0.097.

Regarding KRFQDRPRPGAH, the protein stability index is 0.687 ± 0.044.

Consider KRGYLRTNPLSY, for which the protein stability index worked out at 0.7056 ± 0.0061.

On to KRHCDRVLKMWH, for which the protein stability index amounted to 0.641 ± 0.11.

In turn, KRKEEKKPLINE showed a protein stability index of 0.734 ± 0.072.

For KRKEKAKRTKHV, the protein stability index turned out to be 0.641 ± 0.035.

Regarding KRKKKKKRRTKK, the protein stability index is 0.6442 ± 0.0045.

In turn, KRKKKRRKETLY yielded a protein stability index of 0.641 ± 0.037.

Sequence KRKKQGNKKQEE came in with a protein stability index of 0.6893 ± 0.0017.

Consider KRKRQKNIRNER, for which the protein stability index was 0.704 ± 0.12.

Regarding KRKTKIEQDQRQ, the protein stability index was found to be 0.6704 ± 0.0056.

KRREEKKRKRVE: the protein stability index was determined as 0.648 ± 0.094.

KRRQGRGAKGGE yielded a protein stability index of 0.629 ± 0.045.

As for KRRSHRQHSRRR, the protein stability index was found to be 0.559 ± 0.032.

For the sequence KRSARRAGRATP, the protein stability index is 0.761 ± 0.14.

KRVTYKRIRSKI displayed a protein stability index of 0.799 ± 0.029.

Sequence KSAGLKPNWSTT returned a protein stability index of 0.696 ± 0.065.

The sequence KSDSDNCQALTY came in with a protein stability index of 0.679 ± 0.067.

In turn, KSLRLFSVLSFV showed a protein stability index of 0.627 ± 0.016.

Sequence KSVAKLGHGGSP displayed a protein stability index of 0.677 ± 0.064.

Regarding KSVSVDGYNKED, the protein stability index amounted to 0.646 ± 0.01.

Regarding KSYRVGKMAAQR, the protein stability index was found to be 0.683 ± 0.012.

With KTAKSEEPILYR, the protein stability index stood at 0.753 ± 0.0083.

KTEKTKIKKKRM registered a protein stability index of 0.684 ± 0.0075.
